# From patent US12516294B2, “Method for producing mesenchymal stem cells from living body-derived cell sample containing mesenchymal stem cells” (AJINOMOTO CO., INC., priority 2019, dated 2026)
# “Also recorded” adds a separate entry of the source.
# B1: Vitronectin (20-398 aa) (wako): commercially available partial peptide of vitronectin, corresponding to amino acid Nos. 1-379 of SEQ ID NO: 1 (protein, listed as Homo sapiens)
# chain: DQESCKGRCTEGFNVDKKCQCDELCSYYQSCCTDYTAECKPQVTRGDVFTMPEDEYTVYDDGEEKNNATVHEQVGGPSLTSDLQAQSKGNPEQTPVLKPEEEAPAPEVGASKPEGIDSRPETLHPGRPQPPAEEELCSGKPFDAFTDLKNGSLFAFRGQYCYELDEKAVRPGYPKLIRDVWGIEGPIDAAFTRINCQGKTYLFKGSQYWRFEDGVLDPDYPRNISDGFDGIPDNVDAALALPAHSYSGRERVYFFKGKQYWEYQFQHQPSQEECEGSSLSAVFEHFAMMQRDSWEDIFELLFWGRTSAGTRQPQFISRDWHGVPGQVDAAMAGRIYISGMAPRPSLAKKQRFRHRNRKGYRSQRGHSRGRNQNSRRPSR
# B2: Vitronectin: Vitronectin (wako) used to coat 24-well plates at 1.5 μg/cm^2 in Example 1 (protein, UniProt P04004 20-478, looked up)
# Vitronectin: DQESCKGRCTEGFNVDKKCQCDELCSYYQSCCTDYTAECKPQVTRGDVFTMPEDEYTVYDDGEEKNNATVHEQVGGPSLTSDLQAQSKGNPEQTPVLKPEEEAPAPEVGASKPEGIDSRPETLHPGRPQPPAEEELCSGKPFDAFTDLKNGSLFAFRGQYCYELDEKAVRPGYPKLIRDVWGIEGPIDAAFTRINCQGKTYLFKGSQYWRFEDGVLDPDYPRNISDGFDGIPDNVDAALALPAHSYSGRERVYFFKGKQYWEYQFQHQPSQEECEGSSLSAVFEHFAMMQRDSWEDIFELLFWGRTSAGTRQPQFISRDWHGVPGQVDAAMAGRIYISGMAPRPSLAKKQRFRHRNRKGYRSQRGHSRGRNQNSRRPSRATWLSLFSSEESNLGANNYDDYRMDWLVPATCEPIQSVFFFSGDKYYRVNLRTRRVDTVDPPYPRSIAQYWLGCPAPGHL
# Experiments:
# Assay type in all cases: cell-based
# MNC [1] = assay: MSC production by the kind of TGFβ receptor inhibitor (Example 4); details: 10 μM SB431542, 0.5 μM A-83-01 or 0.5 μM LDN-193189 in medium for seeding; Vitronectin (20-398 aa) coating; day 12 (FIG. 7)
# Description: MNC (Lonza) was thawed using the following medium for seeding (1), (2) or (3). The above-mentioned cells were seeded at a concentration of 2.6×10^6 cells/well in a 24-well plate coated with Vitronectin (20-398 aa) (wako) at a concentration of 1.5 μg/cm^2, and cultured under the conditions of 37° C., 5% CO2. The next day of seeding, the entire amount of the medium in the plate was replaced with a medium for seeding (1), (2) or (3), and the medium for seeding (1), (2) or (3) in an amount corresponding to 20% of the amount of the medium in the plate was further added on day 3 and day 5 after seeding. Medium for seeding (1): StemFit (registered trade mark) AKO3N medium (Ajinomoto Co., Inc.) SOLUTION A, ¼ StemFit (registered trade mark) AKO3N medium (Ajinomoto Co., Inc.) SOLUTION B, 3 ng/mL bFGF (peprotech), 10 μM SB431542 (Stemgent), 1/100 Lipid Concentrate (Life Technologies), 10 nM Dexamethasone (Sigma-Aldrich), 10 ng/mL PDGF-BB (FUJIFILM Wako Pure Chemical Industries, Ltd.), 1 mM Lithium Chloride (Sigma-Aldrich)
# (§1) Medium for seeding (2): StemFit (registered trade mark) AKO3N medium (Ajinomoto Co., Inc.) SOLUTION A, ¼ StemFit (registered trade mark) AKO3N medium (Ajinomoto Co., Inc.) SOLUTION B, 3 ng/mL bFGF (peprotech), 0.5 μM A-83-01 (wako), 1/100 Lipid Concentrate (Life Technologies), 10 nM Dexamethasone (Sigma-Aldrich), 10 ng/mL PDGF-BB (FUJIFILM Wako Pure Chemical Industries, Ltd.), 1 mM Lithium Chloride (Sigma-Aldrich)
# as §1, with “for seeding (3): StemFit (registered” for “for seeding (2): StemFit (registered”, “0.5 μM LDN-193189 (Stemgent), 1/100 Lipid” for “0.5 μM A-83-01 (wako), 1/100 Lipid”, “Chloride (Sigma-Aldrich) […]” for “Chloride (Sigma-Aldrich)”
# After confirming that the cells became sub-confluent, the cells were passaged on day 12 after seeding, and the number of cells was measured.
# MNC [2] = assay: MSC production from MNC by the kind of Vitronectin (Example 2); details: coating 1.5 μg/cm^2, 2.6×10^6 cells/well, 13 days after MNC seeding (FIG. 4)
# Description: MNC (Lonza) was thawed using the following medium for seeding (serum-free). The above-mentioned cells were seeded at a concentration of 2.6×10^6 cells/well in 24-well plates coated with Vitronectin (20-398 aa) (wako) (corresponding to amino acid Nos. 1-379 of SEQ ID NO: 1), Vitronectin (VTN-N, 62-478 aa) (Life Technologies) (corresponding to amino acid Nos. 43-459 of SEQ ID NO: 1) or Vitronectin (Full length, 20-478 aa) (Sigma) (corresponding to SEQ ID NO: 1) at a concentration of 1.5 μg/cm^2, and cultured under the conditions of 37° C., 5% CO2. In addition, the cells were seeded at a concentration of 1.6×10^6 cells/well in a 24-well plate coated with Vitronectin (20-398 aa) (wako) or Synthemax II (CORNING) at concentrations of 1.5 μg/cm^2 and 5.0 μg/cm^2, respectively, and cultured under the conditions of 37° C., 5% CO2. Synthemax II is a vitronectin-based synthetic peptide containing RGD motif and flanking sequence. The next day of seeding, the entire amount of the medium in the plate was replaced with a medium for seeding, and the medium for seeding in an amount corresponding to 20% of the amount of the medium in the plate was further added on day 3 and day 5 after seeding. […]
# After confirming that the cells became sub-confluent, the cells were passaged on days 12 and 13 after seeding, and the number of cells was measured.
# [3] = system: bone marrow mononuclear cells (MNC); assay: Number of cells after re-seeding of dissociated aggregates (Example 1); details: coating at MNC seeding 1.5 μg/cm^2, aggregates re-seeded day 7, counted day 13, compared with Fibronectin coating
# Description: Due to the limitations of purification techniques, bone marrow mononuclear cells (MNC) separated from bone marrow are slightly contained with mesenchymal stem cells (MSC). In this Example, a method for producing MSC from MNC by using a serum-free medium is verified. Bone marrow mononuclear cells (MNC) (Lonza) were thawed using the following medium for seeding. The above-mentioned cells were seeded at a concentration of 2.6×10^6 cells/well in a 24-well plate coated with Fibronectin (Sigma) or Vitronectin (wako) each at a concentration of 1.5 μg/cm^2, and cultured under the conditions of 37° C., 5% CO2. The next day of seeding, the entire amount of the medium in the plate was replaced with a medium for seeding, and the medium for seeding in an amount corresponding to 20% of the amount of the medium in the plate was further added on day 3 and day 5 after seeding. […]
# After confirming that the cells became sub-confluent, the cells were passaged on day 13 after seeding, and the number of cells was measured.
# [4] = system: bone marrow mononuclear cells (MNC); assay: Formation of MSC cell aggregates from MNC seeded on coated plates in serum-free medium (Example 1); details: plate coated at 1.5 μg/cm^2 at MNC seeding, day 5 after seeding, compared with Fibronectin coating
# Description: Due to the limitations of purification techniques, bone marrow mononuclear cells (MNC) separated from bone marrow are slightly contained with mesenchymal stem cells (MSC). In this Example, a method for producing MSC from MNC by using a serum-free medium is verified. Bone marrow mononuclear cells (MNC) (Lonza) were thawed using the following medium for seeding. The above-mentioned cells were seeded at a concentration of 2.6×10^6 cells/well in a 24-well plate coated with Fibronectin (Sigma) or Vitronectin (wako) each at a concentration of 1.5 μg/cm^2, and cultured under the conditions of 37° C., 5% CO2. The next day of seeding, the entire amount of the medium in the plate was replaced with a medium for seeding, and the medium for seeding in an amount corresponding to 20% of the amount of the medium in the plate was further added on day 3 and day 5 after seeding. Medium for seeding: StemFit (registered trade mark) AKO3N medium (Ajinomoto Co., Inc.) SOLUTION A, StemFit (registered trade mark) AKO3N medium (Ajinomoto Co., Inc.) SOLUTION B, 3 ng/mL bFGF (peprotech), 10 μM 5B431542 (Stemgent), 1/100 Lipid Concentrate (Life Technologies), 10 nM Dexamethasone (Sigma-Aldrich), 10 ng/mL PDGF-BB (FUJIFILM Wako Pure Chemical Industries, Ltd.), 1 mM Lithium Chloride (Sigma-Aldrich)
molecule,measurement,setting,value
Cc1cccc(-c2nn(C(=S)Nc3ccccc3)cc2-c2ccnc3ccccc23)n1 [A-83-01],MSC production from MNC (number of MSC),MNC [1],MSC could be efficiently produced from MNC
c1ccc2c(-c3cnn4cc(-c5ccc(N6CCNCC6)cc5)cnc34)ccnc2c1 [LDN-193189],MSC production from MNC (number of MSC),MNC [1],MSC could be efficiently produced from MNC
NC(=O)c1ccc(-c2nc(-c3ccc4c(c3)OCO4)c(-c3ccccn3)[nH]2)cc1 [SB431542],MSC production from MNC (number of MSC),MNC [1],MSC could be efficiently produced from MNC
B1,MSC production from MNC (number of MSC),MNC [2],could produce MSC most efficiently from MNC
B2,number of cells obtained by the subsequent re-seeding,[3],larger
same,number of cells obtained by the subsequent re-seeding,[3]; listed as vitronectin,remarkably higher
same,number of cell aggregates obtained,[4],More cell aggregates were formed; also recorded: larger
